# This sample holds only a part of the variants without activity.
# B1: TPR 5TU (parent)
# chain: GGAUCUUCUCGAUCUAACAAAAAAGACAAAUCUGCCACAAAGCUUGAGAGCAUCUUCGGAUGCAGAGGCGGCAGCCUUCGGUGGCGCGAUAGCGCCAACGUUCUCAACUAUGACACGCAAAACGCGUGCUCCGUUGAAUGGAGUUUAUCAUG
# Variants of: B1
# Assay: polymerase ribozyme fitness, log enrichment relative to wild type (log ratio); higher = more active; in vitro selection for triplet polymerase activity
# Procedure, shortened: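 A heterodimeric triplet polymerase ribozyme had each of its subunits mutagenized by PCR into a library, which was transcribed. One round of in vitro selection, done in triplicate, annealed each library with a biotinylated primer, its partner subunit and triplets, then incubated it frozen at −7 °C before gel excision of extended constructs, streptavidin-bead capture and RT-PCR. Fitness is the logarithm of genotype enrichment relative to wild-type enrichment, based on Illumina sequencing of inputs and outputs and inverse-variance-weighted replicate averages. A base-2 logarithm is used, and genotypes were kept only with ≥10 input reads and ≥1 read per output.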
row,Variant,polymerase ribozyme fitness (log ratio)
1,A47C G94A,-2.54
2,A47G A52G G58A A60G G62C U78G G88C,≤ -4.2
3,A16G U148C,-2.77
4,C99G C129A,-3.81
5,U78G C85G A142G U146C,≤ -4.2
6,U53A C54G,-2.2
7,C8G G83A A97U U127A,≤ -4.2
8,A22U C96G,-0.148
9,C38G C85U A89C,-1.86
10,C57A G84U A89U G92U C118U U151A,≤ -4.2
11,A49U C116G C149U,-4.18
12,U7G A21C C35A A47C C99A C123A,≤ -4.2
13,U82A G92U,-0.55
14,A30U A122U,-2.62
15,C14A C95U,-1.38
16,A17G C18A G84C C93U,-3.84
17,G58A U61A G88C G133U,≤ -4.2
18,C57A A64G A66G C118U A147C G152U,≤ -4.2
19,A16G A17G U56G U61G G68A C72U C114G G143U,≤ -4.2
20,G74A U77G G83A,≤ -4.2
21,U45A A47C,-3.93

row,Variant,polymerase ribozyme fitness (log ratio)
1,A37C C54U A60C U61G C96U C99A G112A A115G,≤ -4.2
2,U45C A119C,-0.959
3,A142C U144A U148G,≤ -4.2
4,U7A C10A C14U C32G C36A U53G U55G U61A G67C U82G C87G C96U C103G,≤ -4.2
5,A21G A49C G81A G141A,≤ -4.2
6,C51U A73U C118G A119C,-1.81
7,U4C A19U G86U,-2.06
8,C27G A28G C69G C93G C95U,≤ -4.2
9,A17C A21G A40U G86U A122U,-1.48
10,C57G G86A,-1
11,C85A A138G,-3.24
12,G11U G46A C85U,-2.44
13,U4A U15G A91C C114U C125A,≤ -4.2
14,U55G G65A A97U U130C,-1.27
15,A16C A73G G92A,-3.3
16,C18G A21G,-0.433
17,C85A C129G,-2.95
18,A30G G42A,≤ -4.2
19,G11C A20U G86C C99G G136C U145G A147C,≤ -4.2
20,A20U U53A,-2.36
21,C5G A16G C35U C63A C85U,-1.82

row,Variant,polymerase ribozyme fitness (log ratio)
1,A29U C96U,-3.19
2,G83A A91C A142G,≤ -4.2
3,C14U U56A,-1.8
4,A29G A41C,-3.63
5,U4G C114U,-2.01
6,G50U,0.257
7,A30C U33A G68U A73U C95A C114A A121G,≤ -4.2
8,U31G U56A G136A A147C,-0.143
9,A21U A60U C103G C108U A142G U148C,≤ -4.2
10,C51G C79G G86U C114U U134A,≤ -4.2
11,A3C A28G A37U A52U G83U,≤ -4.2
12,G50U C87U A89G,-3.95
13,G59A G67A G86C C96G G140U U144C A147U,≤ -4.2
14,C18A A20U G71C G92C G143U U144G,≤ -4.2
15,C96U C105A C116G,-1.79
16,C51U A98U U135C U144A,-3.82
17,C95G C96U,-2.05
18,A41C C54A U82G G94U,-3.5
19,G84U C93A U101C A107G G133U G141C,≤ -4.2
20,G46U G59C C85A A115U,-4.01
21,C87G U104G,≤ -4.2

row,Variant,polymerase ribozyme fitness (log ratio)
1,C14G G59A A73U C87G,≤ -4.2
2,G59C G86C G143U,≤ -4.2
3,C35U G81U U82G G88U G94U U139C C149A,≤ -4.2
4,A19C U53A G58A,0.679
5,U6A C18G U56A A106G,-0.358
6,U15C C75A C96G,≤ -4.2
7,C87U C116A,1.21
8,C54A A91U G100A G141C,≤ -4.2
9,U7A C18U A91U A97U U102C U144G,≤ -4.2
10,U56A A60C G92U,-1.73
11,C8U C43U G48C U55A G92C,≤ -4.2
12,U9C A22C C54U G71U G84A C95A A98U C108A C114U A115C,≤ -4.2
13,C8G U31A G34U C57G C93G,≤ -4.2
14,C14A C38G G81U G94U,-3.15
15,C5G C18A C87G G143A,≤ -4.2
16,U4A G83C G94U U148G,≤ -4.2
17,G92U A106C,-0.0112
18,U56G G100U U134A U146A U148A,≤ -4.2
19,A17U G59U C93U C114G,-3
20,U4G A20U C93G U109A A138G,≤ -4.2

# Source: the RNAGym collection of RNA variant scans (doi:10.1073/pnas.2313332121)
